The term Kd denotes a measure of binding affinity in units of concentration. Read a high Kd as a looser complex. The koff is the rate constant with which the complex falls apart. A word on the kon: it is a measure of how fast the partners come together.

Numbering of substitutions follows the chain as printed.

This assay concerns the target T1, human DLL3 (ACRO, DLL3-H52H4) (human, UniProt Q9NYJ7 27-492).
T1 construct: Bought
T1 sequence: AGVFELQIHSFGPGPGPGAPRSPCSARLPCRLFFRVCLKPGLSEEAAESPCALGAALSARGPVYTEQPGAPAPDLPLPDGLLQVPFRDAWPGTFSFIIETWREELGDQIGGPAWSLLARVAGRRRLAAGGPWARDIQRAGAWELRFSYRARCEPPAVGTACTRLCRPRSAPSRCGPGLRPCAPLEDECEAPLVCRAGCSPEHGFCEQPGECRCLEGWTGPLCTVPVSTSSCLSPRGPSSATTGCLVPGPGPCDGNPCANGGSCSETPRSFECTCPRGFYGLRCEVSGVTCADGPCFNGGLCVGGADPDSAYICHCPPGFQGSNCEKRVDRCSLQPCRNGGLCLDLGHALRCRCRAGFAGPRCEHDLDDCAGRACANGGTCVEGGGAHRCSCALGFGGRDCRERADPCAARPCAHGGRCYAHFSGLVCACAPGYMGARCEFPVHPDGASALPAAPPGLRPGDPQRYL
The assay is described as follows: SPR Biacore 8K, Ab captured on Protein A. The source says: Test antibodies were affinity-captured with a Protein A biosensor chip (Cat. #29127556, Cytiva) for 18 seconds, and then the antigens human DLL3 (ACRO, DLL3-H52H4), cynomolgus monkey DLL3 (KACTUS, DLL-RM103), mouse DLL3 (KACTUS, DLL-MM103), human CD3D&3E (ACRO, CDD-H52W1), and monkey CD3D&3E (ACRO, CDD-C52W4) were allowed to flow through the surface of the chip for 180 seconds, followed by 600 seconds of dissociation. Reaction signals were detected in real time using a Biacore 8K (Cytiva) instrument to obtain association and dissociation curves. After the dissociation in each experimental cycle, the chip was washed and regenerated with a 10 mM glycine-hydrochloric acid solution (pH 1.5, Cat. #BR-1003-54, Cytiva). Data fitting was performed using a 1:1 Model.
Background: Surface plasmon resonance follows binding to a sensor surface in real time, without labels.

B1: hu30L4H10 (antibody, human IgG1, kappa, V domains shown)
VH: EVRLVQSGAEVKKPGASVKVSCKASGYTFTDYYMNWVRQSHGQSLEWMGIINPYTGDTSYNQKFRGRVTLTVDKSASTAYMELSSLRSEDTAVYYCARYHYGPHLEGYFDVWGQGTTVTVSS
VL: DIQMTQSPSSLSASVGDRVTITCKASENVGYVSWYQQKPGKAPKLLIYGASNRYTGVPSRFSGSGSGTDFTLTISSLQPEDFATYYCGQSYSYPLTFGQGTKLEIKR
As to B1, the Kd came out at 2.16 nM, the koff turned out to be 0.000919 s⁻¹ and the on-rate (kon) was 427000 M⁻¹ s⁻¹.

B2: hu30L5H11 (antibody, human IgG1, kappa, V domains shown)
VH: B1 VH with S7F, E10V, S40A, H41P, A76S, R87T
VL: B1 VL with A42S, S59D, Q99S
Consider B2, for which the dissociation constant Kd stood at 3.06 nM, the koff was determined as 0.0012 s⁻¹ and the kon was 391000 M⁻¹ s⁻¹.

B3: hu30L5H10 (antibody, human IgG1, kappa, V domains shown)
VH: B1 VH
VL: B1 VL with A42S, S59D, Q99S
B3 had a Kd of 2.05 nM, a koff of 0.000949 s⁻¹ and a kon of 464000 M⁻¹ s⁻¹.

B4: hu30L5H8 (antibody, human IgG1, kappa, V domains shown)
VH: B1 VH with S7F, E10V, S40A, H41P, A76S
VL: B1 VL with A42S, S59D, Q99S
Molecule B4 gave an equilibrium dissociation constant (Kd) of 2.54 nM, a dissociation rate constant (koff) of 0.00102 s⁻¹ and a kon of 400000 M⁻¹ s⁻¹.

B5: hu30L1H7 (antibody, human IgG1, kappa)
heavy: not shown
light: DIVMTQSPDSLAVSLGERATINCKASENVGYVSWYQQKPGQPPKLLIYGASNRYTGVPDRFSGSGSGTDFTLTISSLQAEDVAVYYCGQSYSYPLTFGQGTKLEIKRTVAAPSVFIFPPSDEQLKSGTASVVCLLNNFYPREAKVQWKVDNALQSGNSQESVTEQDSKDSTYSLSSTLTLSKADYEKHKVYACEVTHQGLSSPVTKSFNRGEC
On to B5, for which the Kd was 1.16 nM, the dissociation rate constant (koff) is 0.00115 s⁻¹ and the on-rate constant (kon) stood at 985000 M⁻¹ s⁻¹.

B6: hu30L1H9 (antibody, human IgG1, kappa, V domains shown)
VH: B1 VH with S40A, H41P, M48I, V68A
VL: DIVMTQSPDSLAVSLGERATINCKASENVGYVSWYQQKPGQPPKLLIYGASNRYTGVPDRFSGSGSGTDFTLTISSLQAEDVAVYYCGQSYSYPLTFGQGTKLEIKR
The molecule B6 came in with a Kd of 2.34 nM, a koff of 0.000981 s⁻¹ and an association rate constant (kon) of 419000 M⁻¹ s⁻¹.

B7: hu30L1H11 (antibody, human IgG1, kappa, V domains shown)
VH: B1 VH with S7F, E10V, S40A, H41P, A76S, R87T
VL: B6 VL
For the molecule B7, binding was put at a Kd of 2.83 nM, the off-rate constant (koff) was determined as 0.00117 s⁻¹ and the on-rate (kon) is 414000 M⁻¹ s⁻¹.

B8: M6CH1 (antibody, human IgG1, kappa, V domains shown)
VH: EVQLQQSGPVLVKPGASVKMSCKASGYTFTDYYMNWVKQSHGKSLEWIGIINPYSGVTIYNHKFKGKATLTVDKSSNTAYMELNSLTSEDSAVYYCARQDSLLDYAMDYWGQGTSVTVSS
VL: DILMTQSPSSMSVSLGDTVSITCHASQGISGNMGWLQQKPGKSFKGLIYHGANLEDGVPSRFSGSGSGADYSLTISSLESEDFADYYCVQYAQFPYTFGGGTKLEIKR
notes: chimeric antibody of mAb6, human IgG1/kappa; also called M6CHI
B8 yielded a Kd of 0.681 nM, a koff of 0.000657 s⁻¹ and a kon of 965000 M⁻¹ s⁻¹.

B9: hu6L1H1 (antibody, human IgG1, kappa, V domains shown)
VH: EVQLVQSGAEVKKPGASVKVSCKASGYTFTDYYMNWVRQAPGQRLEWMGIINPYSGVTIYNHKFKGRVTITVDKSASTAYMELSSLRSEDTAVYYCARQDSLLDYAMDYWGQGTTVTVSS
VL: DIQMTQSPSSLSASVGDRVTITCHASQGISGNMGWLQQKPGKAPKGLIYHGANLEDGVPSRFSGSGSGTDFTLTISSLQPEDFATYYCVQYAQFPYTFGGGTKVEIKR
Consider B9, for which the dissociation constant (Kd) stood at 2.81 nM, the koff amounted to 0.00225 s⁻¹ and the on-rate constant (kon) was 798000 M⁻¹ s⁻¹.

B10: hu6L4H6 (antibody, human IgG1, kappa, V domains shown)
VH: EVQLVQSGSELKKPGASVKVSCKASGYTFTDYYMNWVRQAPGQGLEWMGIINPYSGVTIYNHKFKGRFVLSVDKSSNTAYLQISSLKAEDTAVYYCARQDSLLDYAMDYWGQGTTVTVSS
VL: B9 VL with T69A, F71Y, T85D
For the molecule B10, the affinity, expressed as Kd, was 0.424 nM; the koff turned out to be 0.000811 s⁻¹; the on-rate (kon) is 1.91e+06 M⁻¹ s⁻¹.

B11: hu6L3H1 (antibody, human IgG1, kappa, V domains shown)
VH: B9 VH
VL: B9 VL with A43S, P44F, T69A, F71Y
As to B11, binding was put at a Kd of 2.02 nM, the koff was 0.00144 s⁻¹ and the association rate constant (kon) is 715000 M⁻¹ s⁻¹.

B12: hu6L1H3 (antibody, human IgG1, kappa, V domains shown)
VH: B9 VH with M48I, V68A, I70L, S77N
VL: B9 VL
Molecule B12 displayed an equilibrium dissociation constant (Kd) of 2.76 nM, an off-rate constant (koff) of 0.00224 s⁻¹ and an association rate constant (kon) of 812000 M⁻¹ s⁻¹.

B13: hu6L2H1 (antibody, human IgG1, kappa, V domains shown)
VH: B9 VH
VL: B9 VL with T69A, F71Y
The molecule B13 showed a Kd of 2.19 nM, an off-rate (koff) of 0.00155 s⁻¹ and a kon of 709000 M⁻¹ s⁻¹.

B14: hu6L2H3 (antibody, human IgG1, kappa, V domains shown)
VH: B9 VH with M48I, V68A, I70L, S77N
VL: B9 VL with T69A, F71Y
B14 registered a Kd of 2.01 nM, a koff of 0.00139 s⁻¹ and a kon of 695000 M⁻¹ s⁻¹.

B15: hu6L3H2 (antibody, human IgG1, kappa, V domains shown)
VH: B9 VH with I70L, S77N
VL: B9 VL with A43S, P44F, T69A, F71Y
The molecule B15 returned a Kd of 1.59 nM, a koff of 0.00114 s⁻¹ and a kon of 716000 M⁻¹ s⁻¹.

B16: hu6L1H2 (antibody, human IgG1, kappa, V domains shown)
VH: B9 VH with I70L, S77N
VL: B9 VL
With B16, binding was characterised by a dissociation constant (Kd) of 2.19 nM, the koff is 0.00173 s⁻¹ and the on-rate (kon) came to 787000 M⁻¹ s⁻¹.

B17: hu6L3H3 (antibody, human IgG1, kappa, V domains shown)
VH: B9 VH with M48I, V68A, I70L, S77N
VL: B9 VL with A43S, P44F, T69A, F71Y
Molecule B17 returned a Kd of 1.88 nM, a koff of 0.00135 s⁻¹ and a kon of 718000 M⁻¹ s⁻¹.

B18: M98CH1 (antibody, human IgG1, kappa, V domains shown)
VH: EVQLVESGGGLVKPGGSLKLSCAASGFTFSDYGIHWVRQAPEKGLEWVAYISSGGYTIYYADTVKGRFTISRDNAKNTLFLQMTSLRSEDTAMYYCARGDYDDIFYTMDYWGQGTSVTVSS
VL: DIQMTQTTSSLSASLGDRVTISCRASRDITKFLNWYQQKPDGTVKLLIYYTSRLHSGVPSRFSGSGSGTDYSLTISNLDQEDIATYFCQQGNTLPWTFGGGTKLDIKR
notes: chimeric antibody of mAb98, human IgG1/kappa; also called M98CHI
As to B18, the Kd was 0.429 nM, the koff turned out to be 0.000682 s⁻¹ and the kon was determined as 1.59e+06 M⁻¹ s⁻¹.

B19: hu98L1H2 (antibody, human IgG1, kappa, V domains shown)
VH: B18 VH with K13Q, K19R, E42G, T78S, F80Y, T84N, S88A, M93V, D102E, S116T
VL: DIQMTQSPSSLSASVGDRVTITCRASRDITKFLNWYQQKPGKAPKLLIYYTSRLHSGVPSRFSGSGSGTDFTLTISSLQPEDFATYYCQQGNTLPWTFGGGTKVEIKR
B19 displayed a Kd of 1.97 nM, a koff of 0.00307 s⁻¹ and an on-rate constant (kon) of 1.56e+06 M⁻¹ s⁻¹.

The values are drawn from patent publication US20250376519A1 (JIANGSU HENGRUI PHARMACEUTICALS, published 2025).
